Results taken from the supplement of paper PMC9112550, “Optimization of the antimicrobial peptide Bac7 by deep mutational scanning” (BMC Biology, 2022).

System: Escherichia coli TOP10
Experiment: shrunken log2 fold change of peptide-encoding DNA abundance (4.5 h post-induction vs induction); higher = less antimicrobial activity (less host growth inhibition)
Conditions: time post-induction: 4.5 h; library: site-saturation at positions 5, 18, 19, 20
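Also: peptides expressed intracellularly from a pBAD plasmid library in pooled LB shake-flask culture, induced with 0.3% L-arabinose, DNA abundance read by NGS, three biological replicates, DESeq2 with apeglm shrinkage.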

Sequence | shrunken log2 fold change
RRIRERPPRLPRPRPRPDATPRP | 0.645
RRIRTRPPRLPRPRPRPSIDPRP | -0.397
RRIRNRPPRLPRPRPRPGLAPRP | 0.415
RRIRYRPPRLPRPRPRPRHRPRP | 0.0433
RRIRQRPPRLPRPRPRPDETPRP | -0.00179
RRIRQRPPRLPRPRPRPRMYPRP | -0.2
RRIRTRPPRLPRPRPRPLPDPRP | -0.0997
RRIRARPPRLPRPRPRPSNFPRP | -0.221
RRIRIRPPRLPRPRPRPEQVPRP | 0.0205
RRIRCRPPRLPRPRPRPIQTPRP | 0.299
RRIRWRPPRLPRPRPRPWYAPRP | -0.746
RRIRHRPPRLPRPRPRPWKSPRP | -0.0679
RRIRCRPPRLPRPRPRPPLGPRP | 0.807
RRIRPRPPRLPRPRPRPLFYPRP | -0.383
RRIRKRPPRLPRPRPRPNETPRP | 0.118
RRIRFRPPRLPRPRPRPIVAPRP | -0.112
RRIRLRPPRLPRPRPRPHSIPRP | -0.191
RRIRERPPRLPRPRPRPVHMPRP | -0.0419
RRIRLRPPRLPRPRPRPPHIPRP | 0.0882
RRIRGRPPRLPRPRPRPDHFPRP | -0.31
RRIRGRPPRLPRPRPRPWRVPRP | 0.499
RRIRMRPPRLPRPRPRPFRDPRP | 0.00601
RRIRHRPPRLPRPRPRPDNSPRP | -1.1
RRIRTRPPRLPRPRPRPACVPRP | 0.235
RRIRLRPPRLPRPRPRPYDMPRP | -0.921

Sequence | shrunken log2 fold change
RRIRWRPPRLPRPRPRPIPEPRP | -0.0356
RRIRFRPPRLPRPRPRPLIHPRP | -0.891
RRIRYRPPRLPRPRPRPNERPRP | -0.0497
RRIRYRPPRLPRPRPRPTTWPRP | -0.358
RRIRHRPPRLPRPRPRPKDDPRP | -0.152
RRIRIRPPRLPRPRPRPYRVPRP | -0.0849
RRIRSRPPRLPRPRPRPSCQPRP | -0.175
RRIRVRPPRLPRPRPRPTQAPRP | 0.55
RRIRMRPPRLPRPRPRPQVCPRP | 0.0261
RRIRKRPPRLPRPRPRPKHYPRP | -0.283
RRIRKRPPRLPRPRPRPCHAPRP | 0.384
RRIRYRPPRLPRPRPRPFYQPRP | -0.224
RRIRLRPPRLPRPRPRPSGGPRP | -0.153
RRIRNRPPRLPRPRPRPVTMPRP | -0.514
RRIRPRPPRLPRPRPRPHPRPRP | 0.597
RRIRCRPPRLPRPRPRPCRLPRP | -0.3
RRIRCRPPRLPRPRPRPAEYPRP | -0.335
RRIRMRPPRLPRPRPRPEEDPRP | 0.0356
RRIRTRPPRLPRPRPRPRDKPRP | -0.18
RRIRHRPPRLPRPRPRPGMTPRP | -0.039
RRIRNRPPRLPRPRPRPHGQPRP | -0.0642
RRIRFRPPRLPRPRPRPCGNPRP | -0.0344
RRIRIRPPRLPRPRPRPGQGPRP | -0.257
RRIRNRPPRLPRPRPRPGFYPRP | 0.00223
RRIRARPPRLPRPRPRPPRWPRP | 0.794

Sequence | shrunken log2 fold change
RRIRGRPPRLPRPRPRPSGRPRP | 0.522
RRIRMRPPRLPRPRPRPCYEPRP | 0.0712
RRIRWRPPRLPRPRPRPSNEPRP | 0.0555
RRIRPRPPRLPRPRPRPSACPRP | 0.0137
RRIRARPPRLPRPRPRPNAYPRP | 0.0893
RRIRARPPRLPRPRPRPKYVPRP | -0.145
RRIRTRPPRLPRPRPRPMEMPRP | -0.236
RRIRVRPPRLPRPRPRPWPKPRP | 0.0246
RRIRNRPPRLPRPRPRPLLFPRP | -0.188
RRIRHRPPRLPRPRPRPIWGPRP | 0.226
RRIRSRPPRLPRPRPRPAYNPRP | -0.00937
RRIRTRPPRLPRPRPRPRRAPRP | 0.523
RRIRTRPPRLPRPRPRPKAGPRP | 0.768
RRIRERPPRLPRPRPRPVYRPRP | -0.514
RRIRGRPPRLPRPRPRPGESPRP | 0.584
RRIRARPPRLPRPRPRPKCFPRP | -0.0172
RRIRCRPPRLPRPRPRPYVLPRP | -0.903
RRIRQRPPRLPRPRPRPVMIPRP | -0.286
RRIRIRPPRLPRPRPRPTIQPRP | -0.334
RRIRHRPPRLPRPRPRPIKVPRP | 0.172
RRIRVRPPRLPRPRPRPKEGPRP | 0.0282
RRIRHRPPRLPRPRPRPDWEPRP | -0.00783
RRIRFRPPRLPRPRPRPKNDPRP | -0.407
RRIRLRPPRLPRPRPRPFPWPRP | -0.0836
RRIRRRPPRLPRPRPRPGYSPRP | 1.84

Sequence | shrunken log2 fold change
RRIRDRPPRLPRPRPRPMTNPRP | -0.184
RRIRARPPRLPRPRPRPAWFPRP | 0.303
RRIRIRPPRLPRPRPRPIFCPRP | -0.0695
RRIRGRPPRLPRPRPRPECDPRP | 2.16
RRIRWRPPRLPRPRPRPCGEPRP | 0.216
RRIRWRPPRLPRPRPRPEYHPRP | 0.0167
RRIRGRPPRLPRPRPRPPKPPRP | 0.919
RRIRFRPPRLPRPRPRPNTGPRP | -0.165
RRIRERPPRLPRPRPRPKPFPRP | -0.37
RRIRPRPPRLPRPRPRPSTHPRP | -0.203
RRIRTRPPRLPRPRPRPTHVPRP | 0.122
RRIRVRPPRLPRPRPRPYCAPRP | -0.229
RRIRSRPPRLPRPRPRPQNFPRP | 0.00814
RRIRRRPPRLPRPRPRPKTKPRP | -0.146
RRIRLRPPRLPRPRPRPRGIPRP | -0.0811
RRIRPRPPRLPRPRPRPTPEPRP | 0.277
RRIRARPPRLPRPRPRPGPWPRP | 0.193
RRIRKRPPRLPRPRPRPQTIPRP | 0.0582
RRIRFRPPRLPRPRPRPLVFPRP | -0.204
RRIRDRPPRLPRPRPRPHPPPRP | 0.402
RRIRRRPPRLPRPRPRPNGSPRP | 0.183
RRIRRRPPRLPRPRPRPCISPRP | -0.0399
RRIRHRPPRLPRPRPRPMFPPRP | -0.281
RRIRPRPPRLPRPRPRPVYFPRP | -0.671
RRIRHRPPRLPRPRPRPRVRPRP | 0.0975

Sequence | shrunken log2 fold change
RRIRERPPRLPRPRPRPKAHPRP | 0.107
RRIRKRPPRLPRPRPRPHCCPRP | -0.0219
RRIRDRPPRLPRPRPRPGYCPRP | -0.658
RRIRLRPPRLPRPRPRPVYEPRP | 0.788
RRIRDRPPRLPRPRPRPEFGPRP | 0.914
RRIRHRPPRLPRPRPRPIACPRP | 0.0428
RRIRDRPPRLPRPRPRPTWEPRP | 1.13
RRIRCRPPRLPRPRPRPSGKPRP | -0.327
RRIRERPPRLPRPRPRPRDEPRP | 0.307
RRIRVRPPRLPRPRPRPGRVPRP | 0.405
RRIRWRPPRLPRPRPRPFYLPRP | -0.336
RRIRKRPPRLPRPRPRPITAPRP | 0.235
RRIRSRPPRLPRPRPRPNIMPRP | -0.49
RRIRKRPPRLPRPRPRPKFYPRP | -0.0589
RRIRSRPPRLPRPRPRPIMCPRP | -0.572
RRIRRRPPRLPRPRPRPFYTPRP | -0.327
RRIRFRPPRLPRPRPRPQQRPRP | 0.061
RRIRRRPPRLPRPRPRPMMEPRP | -0.0732
RRIRNRPPRLPRPRPRPLRIPRP | 0.0934
RRIRCRPPRLPRPRPRPWRWPRP | 0.568
RRIRRRPPRLPRPRPRPGHQPRP | 0.342
RRIRIRPPRLPRPRPRPWFPPRP | -0.349
RRIRFRPPRLPRPRPRPEGFPRP | 0.518
RRIRMRPPRLPRPRPRPSYCPRP | -0.236
RRIRFRPPRLPRPRPRPFWGPRP | 0.0215
